Test results: US20230212319A1, “NOVEL ANTIGEN BINDING DOMAINS AND SYNTHETIC ANTIGEN RECEPTORS INCORPORATING THE SAME” (University of Southern California, priority 2020, published 2023)

Legend:
Format in all cases: cell-based
L363 cells = test: JNG assay, co-culture with L363 cells; conditions: co-culture with L363
Method in brief: (§1)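 Jurkat-NFAT-GFP (JNG) cells stably expressing SAR constructs via lentiviral transduction and puromycin/blasticidin selection were cocultured with target cells at E:T ~1:2 for ~4–18 h. NFAT-driven GFP was measured by FACS versus parental JNG cells; scores +/- to 5+ denote ~5–50% GFP-positive cells.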

Nalm6 cells = test: JNG assay, co-culture with Nalm6 cells; conditions: co-culture with Nalm6
Method in brief: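 Jurkat NFAT-GFP reporter cells stably expressing lentivirally transduced SARs, drug-selected where possible, were co-cultured with target cells at E:T ≈1:2 for ~4–18 h. GFP measured by FACS; scored +/- to 5+ (~5–50% GFP+ cells) above parental reporter cells.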

RAJI cells = test: JNG assay, co-culture with RAJI cells; conditions: JNG cells expressing construct, co-culture with Raji
Method in brief: as §1

Molecule | NFAT-GFP ASSAY: L363 (L363 cells) | NFAT-GFP ASSAY: Nalm6 (Nalm6 cells) | NFAT-GFP ASSAY: Raji (RAJI cells)
22021 (protein) MALPVTALLLPLALLLHAARPQLQLQESGPGLVKPSETLSLTCTVSGDSISSGDYYWGWIRQPPGKGLEWIGHIYYSGVTYYNPSLKSRVTISVDTSRNQFSLKLSSVTAADTAVYYCTREDSSNWRSRGQGTLVTVSSLESGGGGSFEEVQLLESGGGLVQPGGSLRLSCAASGFTFSSYAMSWVRQAPGKGLEWVSSISGSGDYIYYADSVKGRFTISRDISKNTLYLQMNSLRAEDTAVYYCAKEGTGANSSLADYRGQGTLVTVSSTRIQNPDPAVYQLRDSKSSDKSVCLFTDFDSQTNVSQSKDSDVYITDKCVLDMRSMDFKSNSAVAWSNKSDFACANAFNNSIIPEDTFFPSPESSCDVKLVEKSFETDTNLNFQNLSVIGFRILLLKVAGFNLLMTLRLWSSRAKRSGSGVKQTLNFDLLKLAGDVESNPGPSRGHMTEYKPTVRLATRDDVPRAVRTLAAAFADYPATRHTVDPDRHIERVTELQELFLTRVGLDIGKVWVADDGAAVAVWTTPESVEAGAVFAEIGPRMAELSGSRLAAQQQMEGLLAPHRPKEPAWFLATVGVSPDHQGKGLGSAVVLPGVEAAERAGVPAFLETSAPRNLPFYERLGFTVTADVEVPEGPRTWCMTRKPGA | Raji (+/-), Nalm6 (+/-), L363 (+/-) (refer to approximately 5%, 10%, 20%, 30%, 40% and 50% GFP positive cells) | Raji (+/-), Nalm6 (+/-), L363 (+/-) (refer to approximately 5%, 10%, 20%, 30%, 40% and 50% GFP positive cells) | Raji (+/-), Nalm6 (+/-), L363 (+/-) (refer to approximately 5%, 10%, 20%, 30%, 40% and 50% GFP positive cells)
22046 (protein) MALPVTALLLPLALLLHAARPQLQLQESGPGLVKPSETLSLTCTVSGDSISSGDYYWGWIRQPPGKGLEWIGHIYYSGVTYYNPSLKSRVTISVDTSRNQFSLKLSSVTAADTAVYYCTREDSSNWRSRGQGTLVTVSSLESGGGGSFEEVQLLESGGGLVQPGGSLRLSCAASGFTFSSYAMSWVRQAPGKGLEWVSSISGSGDYIYYADSVKGRFTISRDISKNTLYLQMNSLRAEDTAVYYCAKEGTGANSSLADYRGQGTLVTVSSTRDKTHTCPPCPAIPEDTFFPSPESSCDVKLVEKSFETDTNLNFQNLSVIGFRILLLKVAGFNLLMTLRLWSSRAKRSGSGVKQTLNFDLLKLAGDVESNPGPSRGHMTEYKPTVRLATRDDVPRAVRTLAAAFADYPATRHTVDPDRHIERVTELQELFLTRVGLDIGKVWVADDGAAVAVWTTPESVEAGAVFAEIGPRMAELSGSRLAAQQQMEGLLAPHRPKEPAWFLATVGVSPDHQGKGLGSAVVLPGVEAAERAGVPAFLETSAPRNLPFYERLGFTVTADVEVPEGPRTWCMTRKPGA | + (refer to approximately 5%, 10%, 20%, 30%, 40% and 50% GFP positive cells) | +/- (refer to approximately 5%, 10%, 20%, 30%, 40% and 50% GFP positive cells) | 2+ (refer to approximately 5%, 10%, 20%, 30%, 40% and 50% GFP positive cells)
22035 (protein) MALPVTALLLPLALLLHAARPQLQLQESGPGLVKPSETLSLTCTVSGDSISSGDYYWGWIRQPPGKGLEWIGHIYYSGVTYYNPSLKSRVTISVDTSRNQFSLKLSSVTAADTAVYYCTREDSSNWRSRGQGTLVTVSSLDSGGGGSFEQLQLQESGPGLVKPSETLSLTCTVSGGSISSGDYYWGWIRQPPGKGLEWIGHIYYSGATYYNPSLKSRVTISVDTSRNQFSLKLSSVTAADTAVYYCTRDDSSNWRSRGQGTLVTVSSTRIQNPDPAVYQLRDSKSSDKSVCLFTDFDSQTNVSQSKDSDVYITDKTVLDMRSMDFKSNSAVAWSNKSDFACANAFNNSIIPEDTFFPSPESSCDVKLVEKSFETDTNLNFQNLSVIGFRILLLKVAGFNLLMTLRLWSSRAKRSGSGVKQTLNFDLLKLAGDVESNPGPSRGHMTEYKPTVRLATRDDVPRAVRTLAAAFADYPATRHTVDPDRHIERVTELQELFLTRVGLDIGKVWVADDGAAVAVWTTPESVEAGAVFAEIGPRMAELSGSRLAAQQQMEGLLAPHRPKEPAWFLATVGVSPDHQGKGLGSAVVLPGVEAAERAGVPAFLETSAPRNLPFYERLGFTVTADVEVPEGPRTWCMTRKPGA | Raji (+/-), Nalm6 (+/-), L363 (+/-) (refer to approximately 5%, 10%, 20%, 30%, 40% and 50% GFP positive cells) | Raji (+/-), Nalm6 (+/-), L363 (+/-) (refer to approximately 5%, 10%, 20%, 30%, 40% and 50% GFP positive cells) | Raji (+/-), Nalm6 (+/-), L363 (+/-) (refer to approximately 5%, 10%, 20%, 30%, 40% and 50% GFP positive cells)
22049 (protein) MALPVTALLLPLALLLHAARPQLQLQESGPGLVKPSETLSLTCTVSGDSISSGDYYWGWIRQPPGKGLEWIGHIYYSGVTYYNPSLKSRVTISVDTSRNQFSLKLSSVTAADTAVYYCTREDSSNWRSRGQGTLVTVSSLEGQPKANPTVTLFPPSSEELQANKATLVCLISDFYPGAVTVAWKADGSPVKAGVETTKPSKQSNNKYAASSYLSLTPEQWKSHRSYSCQVTHEGSTVEKTVAPTECSPIKTDVITMDPKDNCSKDANDTLLLQLTNTSAYYMYLLLLLKSVVYFAIITCCLLRRTAFCCNGEKSRAKRSGSGATNFSLLKQAGDVEENPGPTSMDWIWRILFLVGAATGAHSFEVQLLESGGGLIQPGGSLRLSCAASGFTFSSHAMTWVRQAPGKGLEWVSAISGSGDYTHYADSVKGRFTISRDNSKNTVYLQMNSLRAEDSAVYYCAKDEDGGSLLGHRGQGTLVTVSSTRASTKGPSVFPLAPSSKSTSGGTAALGCLVKDYFPEPVTVSWNSGALTSGVHTFPAVLQSSGLYSLSSVVTVPSSSLGTQTYICNVNHKPSNTKVDKRVEPKSCEVKTDSTDHVKPKETENTKQPSKSCHKPKAIVHTEKVNMMSLTVLGLRMLFAKTVAVNFLLTAKLFFLRAKRSGSGVKQTLNFDLLKLAGDVESNPGPSRGHMTEYKPTVRLATRDDVPRAVRTLAAAFADYPATRHTVDPDRHIERVTELQELFLTRVGLDIGKVWVADDGAAVAVWTTPESVEAGAVFAEIGPRMAELSGSRLAAQQQMEGLLAPHRPKEPAWFLATVGVSPDHQGKGLGSAVVLPGVEAAERAGVPAFLETSAPRNLPFYERLGFTVTADVEVPEGPRTWCMTRKPGA | +/- (refer to approximately 5%, 10%, 20%, 30%, 40% and 50% GFP positive cells) | +/- (refer to approximately 5%, 10%, 20%, 30%, 40% and 50% GFP positive cells) | 
22060 (protein) MALPVTALLLPLALLLHAARPQLQLQESGPGLVKPSETLSLTCTVSGDSISSGDYYWGWIRQPPGKGLEWIGHIYYSGVTYYNPSLKSRVTISVDTSRNQFSLKLSSVTAADTAVYYCTREDSSNWRSRGQGTLVTVSSLEGSGGGGSGGGGSGEDLKNVFPPEVAVFEPSEAEISHTQKATLVCLATGFYPDHVELSWWVNGKEVHSGVCTDPQPLKEQPALNDSRYCLSSRLRVSATFWQNPRNHFRCQVQFYGLSENDEWTQDRAKPVTQIVSAEAWGRADCGFTSESYQQGVLSATILYEILLGKATLYAVLVSALVLMAMVKRKDSRGRAKRSGSGATNFSLLKQAGDVEENPGPTSMDWIWRILFLVGAATGAHSFEVQLLESGGGLIQPGGSLRLSCAASGFTFSSHAMTWVRQAPGKGLEWVSAISGSGDYTHYADSVKGRFTISRDNSKNTVYLQMNSLRAEDSAVYYCAKDEDGGSLLGHRGQGTLVTVSSTRIQNPDPAVYQLRDSKSSDKSVCLFTDFDSQTNVSQSKDSDVYITDKCVLDMRSMDFKSNSAVAWSNKSDFACANAFNNSIIPEDTFFPSPESSCDVKLVEKSFETDTNLNFQNLSVIGFRILLLKVAGFNLLMTLRLWSSRAKRSGSGVKQTLNFDLLKLAGDVESNPGPSRGHMTEYKPTVRLATRDDVPRAVRTLAAAFADYPATRHTVDPDRHIERVTELQELFLTRVGLDIGKVWVADDGAAVAVWTTPESVEAGAVFAEIGPRMAELSGSRLAAQQQMEGLLAPHRPKEPAWFLATVGVSPDHQGKGLGSAVVLPGVEAAERAGVPAFLETSAPRNLPFYERLGFTVTADVEVPEGPRTWCMTRKPGA | 2+ (refer to approximately 5%, 10%, 20%, 30%, 40% and 50% GFP positive cells) | +/- (refer to approximately 5%, 10%, 20%, 30%, 40% and 50% GFP positive cells) | 2+ (refer to approximately 5%, 10%, 20%, 30%, 40% and 50% GFP positive cells)
22019 (protein) MALPVTALLLPLALLLHAARPLEGKPIPNPLLGLDSTGSGEDLKNVFPPEVAVFEPSKAEIAHTQKATLVCLATGFYPDHVELSWWVNGKEVHSGVCTDPQPLKEQPALNDSRYCLSSRLRVSATFWQNPRNHFRCQVQFYGLSENDEWTQDRAKPVTQIVSAEAWGRADCGITSASYHQGVLSATILYEILLGKATLYAVLVSALVLMAMVKRKDSRGRAKRSGSGATNFSLLKQAGDVEENPGPTSTMALPVTALLLPLALLLHAARPQLQLQESGPGLVKPSETLSLTCTVSGDSISSGDYYWGWIRQPPGKGLEWIGHIYYSGVTYYNPSLKSRVTISVDTSRNQFSLKLSSVTAADTAVYYCTREDSSNWRSRGQGTLVTVSSLESGGGGSFEVQLLESGGGLIQPGGSLRLSCAASGFTFSSHAMTWVRQAPGKGLEWVSAISGSGDYTHYADSVKGRFTISRDNSKNTVYLQMNSLRAEDSAVYYCAKDEDGGSLLGHRGQGTLVTVSSTREQKLISEEDGSGIQNPDPAVYQLRDSKSSDKSVCLFTDFDSQTNVSQSKDSDVYITDKCVLDMRSMDFKSNSAVAWSNKSDFACANAFNNSIIPEDTFFPSSDVPCDVKLVEKSFETDTNLNFQNLSVIGFRILLLKVAGFNLLMTLRLWSSRAKRSGSGVKQTLNFDLLKLAGDVESNPGPSRGHMTEYKPTVRLATRDDVPRAVRTLAAAFADYPATRHTVDPDRHIERVTELQELFLTRVGLDIGKVWVADDGAAVAVWTTPESVEAGAVFAEIGPRMAELSGSRLAAQQQMEGLLAPHRPKEPAWFLATVGVSPDHQGKGLGSAVVLPGVEAAERAGVPAFLETSAPRNLPFYERLGFTVTADVEVPEGPRTWCMTRKPGA | + (refer to approximately 5%, 10%, 20%, 30%, 40% and 50% GFP positive cells) | +/- (refer to approximately 5%, 10%, 20%, 30%, 40% and 50% GFP positive cells) | + (refer to approximately 5%, 10%, 20%, 30%, 40% and 50% GFP positive cells)
